From the supplement of paper PMC10065799, “High-throughput profiling of sequence recognition by tyrosine kinases and SH2 domains using bacterial peptide display” (eLife, 2023)

How the values were obtained:
c-Src SH2 = experiment: SH2 binding enrichment of the phosphorylated peptide, bacterial display (enrichment ratio); higher = better substrate or ligand; peptides without Tyr show the background
Grb2 SH2 = Grb2 SH2 (UniProt P62993); experiment: as above
SHP2-C SH2 = experiment: as above
Fyn = Fyn (UniProt P06241); experiment: phosphorylation enrichment, bacterial display (enrichment ratio); higher = better substrate or ligand; peptides without Tyr show the background
Sequence of Fyn (P06241 whole entry, looked up): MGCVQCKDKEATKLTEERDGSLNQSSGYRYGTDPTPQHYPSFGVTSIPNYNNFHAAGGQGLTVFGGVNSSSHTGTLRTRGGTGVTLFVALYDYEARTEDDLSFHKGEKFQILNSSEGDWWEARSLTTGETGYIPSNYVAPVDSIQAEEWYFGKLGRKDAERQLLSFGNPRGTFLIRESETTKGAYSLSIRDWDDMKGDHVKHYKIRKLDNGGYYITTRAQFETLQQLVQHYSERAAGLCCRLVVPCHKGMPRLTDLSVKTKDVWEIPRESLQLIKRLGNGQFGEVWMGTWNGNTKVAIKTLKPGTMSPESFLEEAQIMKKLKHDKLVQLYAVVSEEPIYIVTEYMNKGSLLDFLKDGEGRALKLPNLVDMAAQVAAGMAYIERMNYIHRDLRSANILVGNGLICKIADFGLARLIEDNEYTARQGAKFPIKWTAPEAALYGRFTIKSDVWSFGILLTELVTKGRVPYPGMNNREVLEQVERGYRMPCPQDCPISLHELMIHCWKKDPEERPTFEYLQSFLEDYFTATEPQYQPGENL

MERTK = MERTK (UniProt Q12866); experiment: as above
Sequence of MERTK (Q12866 whole entry, looked up): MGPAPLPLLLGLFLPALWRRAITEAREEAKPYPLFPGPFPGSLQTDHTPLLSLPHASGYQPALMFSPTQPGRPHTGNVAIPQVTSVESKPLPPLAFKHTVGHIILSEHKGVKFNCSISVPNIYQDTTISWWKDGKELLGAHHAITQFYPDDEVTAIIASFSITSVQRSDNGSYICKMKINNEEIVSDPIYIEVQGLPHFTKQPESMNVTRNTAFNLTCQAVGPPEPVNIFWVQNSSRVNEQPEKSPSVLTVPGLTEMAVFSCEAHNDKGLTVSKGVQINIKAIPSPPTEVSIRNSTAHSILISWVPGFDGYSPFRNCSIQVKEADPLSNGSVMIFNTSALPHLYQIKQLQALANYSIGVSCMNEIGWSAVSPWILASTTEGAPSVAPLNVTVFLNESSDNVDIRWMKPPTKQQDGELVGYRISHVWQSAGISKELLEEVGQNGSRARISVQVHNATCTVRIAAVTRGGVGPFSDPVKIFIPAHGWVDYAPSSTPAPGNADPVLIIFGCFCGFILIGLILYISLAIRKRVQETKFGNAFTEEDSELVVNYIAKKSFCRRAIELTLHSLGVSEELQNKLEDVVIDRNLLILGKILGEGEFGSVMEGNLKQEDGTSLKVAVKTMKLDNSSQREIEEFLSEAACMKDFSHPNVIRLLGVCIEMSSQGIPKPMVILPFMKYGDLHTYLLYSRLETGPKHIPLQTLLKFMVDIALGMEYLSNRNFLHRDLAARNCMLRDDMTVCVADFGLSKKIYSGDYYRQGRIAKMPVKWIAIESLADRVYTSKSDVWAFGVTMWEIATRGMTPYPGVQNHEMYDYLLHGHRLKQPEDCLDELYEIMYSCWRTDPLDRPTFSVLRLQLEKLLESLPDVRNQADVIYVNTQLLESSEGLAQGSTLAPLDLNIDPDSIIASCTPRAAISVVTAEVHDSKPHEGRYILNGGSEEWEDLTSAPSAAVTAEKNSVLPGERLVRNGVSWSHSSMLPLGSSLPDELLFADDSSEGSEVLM

Hck = Hck (UniProt P08631); experiment: as above
Sequence of Hck (P08631 whole entry, looked up): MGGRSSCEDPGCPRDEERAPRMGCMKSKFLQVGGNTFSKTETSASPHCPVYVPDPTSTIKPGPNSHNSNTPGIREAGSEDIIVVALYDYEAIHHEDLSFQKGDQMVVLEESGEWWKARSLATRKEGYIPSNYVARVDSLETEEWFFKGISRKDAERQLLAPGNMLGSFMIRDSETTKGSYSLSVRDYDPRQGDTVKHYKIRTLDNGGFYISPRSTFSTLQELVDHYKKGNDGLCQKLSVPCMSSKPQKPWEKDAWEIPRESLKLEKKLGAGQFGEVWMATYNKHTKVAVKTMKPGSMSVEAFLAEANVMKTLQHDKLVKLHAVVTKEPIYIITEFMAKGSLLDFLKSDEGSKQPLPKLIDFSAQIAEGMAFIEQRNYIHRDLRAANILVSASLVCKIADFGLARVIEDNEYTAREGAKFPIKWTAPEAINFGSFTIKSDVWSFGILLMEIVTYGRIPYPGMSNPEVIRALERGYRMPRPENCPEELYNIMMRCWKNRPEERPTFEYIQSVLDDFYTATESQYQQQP

AncSZ = experiment: as above
FGFR1 = FGFR1 (UniProt P11362); experiment: as above
EPHB2 = EPHB2 (UniProt P29323); experiment: as above
Sequence of EPHB2 (P29323 whole entry, looked up): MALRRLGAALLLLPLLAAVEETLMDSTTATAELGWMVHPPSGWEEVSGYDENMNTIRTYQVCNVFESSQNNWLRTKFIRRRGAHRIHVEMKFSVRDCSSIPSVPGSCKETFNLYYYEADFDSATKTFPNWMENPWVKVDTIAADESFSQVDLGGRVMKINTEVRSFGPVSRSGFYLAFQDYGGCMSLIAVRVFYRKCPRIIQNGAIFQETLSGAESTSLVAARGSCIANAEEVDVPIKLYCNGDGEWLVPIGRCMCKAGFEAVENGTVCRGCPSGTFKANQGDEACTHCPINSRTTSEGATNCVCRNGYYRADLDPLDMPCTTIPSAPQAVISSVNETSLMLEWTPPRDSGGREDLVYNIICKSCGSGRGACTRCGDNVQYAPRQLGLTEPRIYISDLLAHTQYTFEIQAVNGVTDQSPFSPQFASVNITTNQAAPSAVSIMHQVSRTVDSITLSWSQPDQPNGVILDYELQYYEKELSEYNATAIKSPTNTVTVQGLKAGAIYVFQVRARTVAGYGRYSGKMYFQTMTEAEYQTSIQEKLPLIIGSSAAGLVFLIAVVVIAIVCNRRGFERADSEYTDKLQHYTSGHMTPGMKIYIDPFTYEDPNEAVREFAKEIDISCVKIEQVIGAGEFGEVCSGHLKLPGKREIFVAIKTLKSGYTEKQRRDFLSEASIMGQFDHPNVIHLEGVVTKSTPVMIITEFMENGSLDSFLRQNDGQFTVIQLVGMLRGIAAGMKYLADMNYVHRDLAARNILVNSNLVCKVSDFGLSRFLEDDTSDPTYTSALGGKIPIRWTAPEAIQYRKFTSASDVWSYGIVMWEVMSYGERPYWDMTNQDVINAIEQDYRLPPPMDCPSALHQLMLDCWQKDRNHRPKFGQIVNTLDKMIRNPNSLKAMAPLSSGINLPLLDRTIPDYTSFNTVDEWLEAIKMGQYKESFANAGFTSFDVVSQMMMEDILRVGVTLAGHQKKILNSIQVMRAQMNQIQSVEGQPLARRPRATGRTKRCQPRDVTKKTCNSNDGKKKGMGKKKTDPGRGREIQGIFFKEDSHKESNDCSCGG

Jak2 = Jak2 (UniProt O60674); experiment: as above
c-Abl (mouse) = experiment: as above
Fes = Fes (UniProt P07332); experiment: as above
Fer (mouse) = experiment: as above
c-Src = experiment: as above
FGFR3 = FGFR3 (UniProt P22607); experiment: as above
Sequence of FGFR3 (P22607 whole entry, looked up): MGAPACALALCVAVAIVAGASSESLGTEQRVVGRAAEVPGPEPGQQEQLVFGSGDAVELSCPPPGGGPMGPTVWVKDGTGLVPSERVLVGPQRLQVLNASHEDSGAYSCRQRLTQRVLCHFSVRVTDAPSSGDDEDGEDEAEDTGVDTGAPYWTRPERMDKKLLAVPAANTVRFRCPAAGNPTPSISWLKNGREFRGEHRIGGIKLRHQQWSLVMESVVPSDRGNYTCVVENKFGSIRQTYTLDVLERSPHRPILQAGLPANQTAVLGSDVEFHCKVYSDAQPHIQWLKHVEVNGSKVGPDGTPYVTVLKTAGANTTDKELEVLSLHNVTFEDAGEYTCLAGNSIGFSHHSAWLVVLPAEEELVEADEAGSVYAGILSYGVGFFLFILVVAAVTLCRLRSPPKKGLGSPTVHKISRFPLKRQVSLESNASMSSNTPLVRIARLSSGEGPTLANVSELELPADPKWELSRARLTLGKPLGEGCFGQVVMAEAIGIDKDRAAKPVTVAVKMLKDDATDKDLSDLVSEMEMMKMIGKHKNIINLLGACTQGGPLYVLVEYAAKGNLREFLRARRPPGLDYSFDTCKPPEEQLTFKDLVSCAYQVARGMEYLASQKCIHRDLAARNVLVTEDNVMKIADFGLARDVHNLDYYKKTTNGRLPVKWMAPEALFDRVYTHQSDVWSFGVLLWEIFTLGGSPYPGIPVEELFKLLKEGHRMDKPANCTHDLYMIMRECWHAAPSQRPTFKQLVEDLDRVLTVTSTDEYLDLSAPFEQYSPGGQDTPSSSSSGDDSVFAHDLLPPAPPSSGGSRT

EPHB1 = EPHB1 (UniProt P54762); experiment: as above
Sequence of EPHB1 (P54762 whole entry, looked up, the tested form may be a part): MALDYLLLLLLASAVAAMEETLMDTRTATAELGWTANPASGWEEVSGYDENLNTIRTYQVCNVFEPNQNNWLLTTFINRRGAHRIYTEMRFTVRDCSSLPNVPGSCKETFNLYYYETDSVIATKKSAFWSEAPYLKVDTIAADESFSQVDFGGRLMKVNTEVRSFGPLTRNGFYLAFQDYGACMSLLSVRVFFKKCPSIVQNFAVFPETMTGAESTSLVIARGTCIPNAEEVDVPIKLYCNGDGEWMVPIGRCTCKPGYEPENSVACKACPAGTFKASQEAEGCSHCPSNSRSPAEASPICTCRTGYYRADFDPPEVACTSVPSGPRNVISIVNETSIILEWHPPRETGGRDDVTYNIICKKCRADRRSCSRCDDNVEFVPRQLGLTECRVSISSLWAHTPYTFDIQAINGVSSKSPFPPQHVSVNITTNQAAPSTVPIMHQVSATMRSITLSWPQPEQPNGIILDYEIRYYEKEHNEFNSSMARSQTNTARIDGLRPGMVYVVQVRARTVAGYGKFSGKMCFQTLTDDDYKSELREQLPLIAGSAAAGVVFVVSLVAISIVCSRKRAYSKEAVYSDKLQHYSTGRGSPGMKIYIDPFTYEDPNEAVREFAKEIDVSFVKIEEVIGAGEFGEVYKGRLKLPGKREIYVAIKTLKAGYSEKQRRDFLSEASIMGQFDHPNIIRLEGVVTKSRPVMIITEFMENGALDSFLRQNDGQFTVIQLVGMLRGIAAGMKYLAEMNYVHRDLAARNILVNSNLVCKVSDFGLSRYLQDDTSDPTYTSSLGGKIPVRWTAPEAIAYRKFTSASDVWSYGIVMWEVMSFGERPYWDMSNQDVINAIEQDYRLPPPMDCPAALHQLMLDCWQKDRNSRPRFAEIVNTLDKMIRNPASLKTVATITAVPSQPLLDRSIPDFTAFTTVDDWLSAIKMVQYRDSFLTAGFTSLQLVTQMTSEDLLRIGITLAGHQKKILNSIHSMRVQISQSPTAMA
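Throughout, for SH2 binding enrichment of the phosphorylated peptide, bacterial display: peptide library displayed on the E. coli surface as eCPX fusions, selected cells deep-sequenced, score is each peptide's frequency after selection divided by its frequency in the input.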
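Throughout, for phosphorylation enrichment, bacterial display: 11-residue human phosphosite peptides and single-mutation variants displayed on the E. coli surface, counted by deep sequencing, each peptide's frequency after selection divided by its frequency in the unselected input library; frequency after pTyr selection over input frequency; kinase dosed for 20-30% of maximal phosphorylation in three min.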

Sequence | SH2 binding enrichment (c-Src SH2) | SH2 binding enrichment (Grb2 SH2) | SH2 binding enrichment (SHP2-C SH2) | phosphorylation enrichment (Fyn) | phosphorylation enrichment (MERTK) | phosphorylation enrichment (Hck) | phosphorylation enrichment (AncSZ) | phosphorylation enrichment (FGFR1) | phosphorylation enrichment (EPHB2) | phosphorylation enrichment (Jak2) | phosphorylation enrichment (c-Abl (mouse)) | phosphorylation enrichment (Fes) | phosphorylation enrichment (Fer (mouse)) | phosphorylation enrichment (c-Src) | phosphorylation enrichment (FGFR3) | phosphorylation enrichment (EPHB1)
QYNIQYSSSAA [ERBB2IP_Y981] | 0.59 | 0.978 | 0.679 | 0.702 | 0.452 | 0.47 | 0.913 | 0.693 | 0.583 | 0.68 | 0.408 | 0.964 | 0.606 | 0.749 | 0.648 | 0.335
NLMPAYFKCIQ [CYP21A2_Y190_YF] | 0.494 | 0.904 | 0.639 | 0.546 | 0.539 | 0.61 | 1.4 | 0.617 | 0.707 | 1.61 | 1.09 | 1.6 | 0.768 | 0.526 | 1.01 | 0.74
DGDTRYSTFSE [TKTL1_Y318] | 2.62 | 0.978 | 1.82 | 0.467 | 0.451 | 0.559 | 0.837 | 0.41 | 0.487 | 0.849 | 0.764 | 0.879 | 0.481 | 0.5 | 0.669 | 0.609
ADYPDCKYRPR [SOX11_Y116_Y116C] | 0.634 | 0.833 | 0.799 | 0.427 | 0.41 | 0.416 | 0.733 | 0.606 | 0.51 | 0.657 | 0.706 | 0.955 | 0.426 | 0.406 | 0.626 | 0.496
GKFFQYDTWNQ [IGF2_Y116_K120N] | 0.761 | 0.746 | 0.718 | 0.51 | 0.588 | 0.741 | 1.06 | 0.643 | 0.7 | 0.933 | 0.78 | 1.07 | 0.533 | 0.872 | 0.639 | 0.545
LGIDRYHAIVY [NPSR1_Y147_S143G] | 5.09 | 0.823 | 0.818 | 0.442 | 0.446 | 0.683 | 0.717 | 2.82 | 0.523 | 0.775 | 0.437 | 0.814 | 0.408 | 0.621 | 1.84 | 0.443
IDAVCYFRMEN [NPHS2_Y194_I192V_YF] | 0.545 | 0.764 | 0.607 | 0.653 | 0.715 | 0.903 | 1.79 | 0.986 | 0.763 | 2.74 | 1.5 | 1.99 | 0.641 | 0.873 | 1.34 | 0.788
GVFSRYFTTFD [CLCA1_Y661_YF] | 0.395 | 0.891 | 0.789 | 0.438 | 0.393 | 0.661 | 0.954 | 0.468 | 0.512 | 1.15 | 0.679 | 0.959 | 0.433 | 0.481 | 0.631 | 0.458
NTYEKYWLFYQ [GATM_Y103_P105L] | 0.807 | 0.788 | 1.12 | 1.5 | 1.78 | 1.36 | 1.26 | 1.7 | 2.94 | 1.18 | 0.8 | 1.39 | 0.874 | 2.23 | 1.65 | 4.77
YENGEYIVRQG [PRKG1_Y247_I249V] | 8.91 | 32.9 | 1.14 | 0.494 | 0.424 | 0.495 | 1.02 | 0.495 | 0.464 | 0.784 | 0.582 | 0.937 | 0.483 | 0.466 | 0.729 | 0.543
FISVGYVDGTQ [HLA-B_Y51_D54G] | 0.527 | 0.781 | 0.753 | 0.315 | 0.348 | 0.375 | 0.741 | 0.353 | 0.401 | 0.696 | 0.572 | 0.807 | 0.358 | 0.398 | 0.587 | 0.268
FRDALYKSMVD [PHEX_Y250_F252S_YF] | 0.516 | 0.795 | 0.735 | 0.419 | 0.484 | 0.476 | 0.792 | 0.497 | 0.614 | 0.897 | 0.643 | 0.97 | 0.488 | 0.365 | 0.642 | 0.608
SDVCMYRKNIY [SYNE2_Y570] | 0.418 | 0.645 | 0.51 | 0.416 | 0.419 | 0.51 | 1.12 | 0.502 | 0.541 | 0.875 | 0.685 | 1.08 | 0.491 | 0.424 | 0.681 | 0.618
RDIHDYIKHLG [UNC13C_Y308] | 0.507 | 0.92 | 0.97 | 0.576 | 0.46 | 0.519 | 0.9 | 0.449 | 0.985 | 0.614 | 0.373 | 0.696 | 0.582 | 0.487 | 0.474 | 0.597
QQLDEYQELLD [LMNA_Y359] | 0.452 | 0.798 | 0.55 | 0.669 | 0.6 | 0.684 | 1.63 | 0.615 | 0.757 | 1.3 | 1.01 | 1.57 | 0.598 | 0.726 | 1.18 | 0.776
EHAGEYGAEAL [HBA1_Y25_A20E] | 0.674 | 0.865 | 0.769 | 0.489 | 0.455 | 0.592 | 0.832 | 0.595 | 0.543 | 0.693 | 0.612 | 0.896 | 0.427 | 0.468 | 0.681 | 0.423
HHIDFYKETTN [FGFR1_Y654_K656E_YF] | 0.761 | 1.08 | 0.933 | 1.27 | 0.556 | 1.64 | 1.07 | 1.02 | 2.44 | 0.938 | 0.575 | 2.36 | 0.889 | 0.541 | 1.14 | 1.5

Sequence | SH2 binding enrichment (c-Src SH2) | SH2 binding enrichment (Grb2 SH2) | SH2 binding enrichment (SHP2-C SH2) | phosphorylation enrichment (Fyn) | phosphorylation enrichment (MERTK) | phosphorylation enrichment (Hck) | phosphorylation enrichment (AncSZ) | phosphorylation enrichment (FGFR1) | phosphorylation enrichment (EPHB2) | phosphorylation enrichment (Jak2) | phosphorylation enrichment (c-Abl (mouse)) | phosphorylation enrichment (Fes) | phosphorylation enrichment (Fer (mouse)) | phosphorylation enrichment (c-Src) | phosphorylation enrichment (FGFR3) | phosphorylation enrichment (EPHB1)
NVFGNYNQQPS [HNRNPA2B1_Y306_D302V] | 0.584 | 0.822 | 0.682 | 0.401 | 0.375 | 0.484 | 0.492 | 0.356 | 0.375 | 0.687 | 0.674 | 0.713 | 0.315 | 0.384 | 0.471 | 0.468
LIYTNYEAGKD [GSTP1_Y112] | 0.503 | 1.09 | 0.568 | 7.8 | 7.41 | 5.36 | 1.23 | 1.78 | 8.11 | 0.88 | 7.84 | 1.01 | 5.02 | 7.03 | 1.64 | 6.63
STKELYEKFMI | 0.615 | 0.915 | 0.709 | 0.724 | 0.872 | 1.01 | 0.725 | 0.409 | 0.414 | 0.619 | 0.6 | 0.857 | 6.97 | 1.01 | 0.492 | 0.411
FRARAYSFRGP [CHGA_Y381_G382S] | 0.573 | 0.597 | 0.363 | 0.418 | 0.601 | 0.455 | 0.697 | 0.538 | 0.419 | 0.628 | 0.573 | 0.591 | 0.456 | 0.507 | 0.534 | 0.48
GGTTMYPGIAD [ACTC1_Y308] | 0.393 | 0.871 | 0.783 | 0.493 | 0.418 | 0.437 | 0.854 | 0.451 | 0.419 | 0.766 | 0.561 | 0.722 | 0.408 | 0.484 | 0.576 | 0.424
TYVVLYDAELT [ERCC4_Y581_R576T] | 1.53 | 1.64 | 1.36 | 0.87 | 2.56 | 0.891 | 1.37 | 1.79 | 2.67 | 1.05 | 0.67 | 1.16 | 0.515 | 0.795 | 1.52 | 4.46
FHKALYTVRSF [PDE6C_Y266_YF] | 0.459 | 0.784 | 0.648 | 0.43 | 0.378 | 0.557 | 0.708 | 0.462 | 0.489 | 0.674 | 0.666 | 0.942 | 0.394 | 0.389 | 0.549 | 0.612
QMQAAYQKAVA [HBD_Y131_V134A] | 0.42 | 0.893 | 0.76 | 0.47 | 0.368 | 0.449 | 0.576 | 0.652 | 0.292 | 0.635 | 0.451 | 0.798 | 0.405 | 0.307 | 0.508 | 0.583
DQVEQCKKELE [LMNA_Y259_Y259C] | 0.524 | 0.79 | 0.937 | 0.52 | 0.49 | 0.703 | 1.2 | 0.528 | 0.625 | 1.1 | 0.746 | 1.27 | 0.518 | 0.562 | 0.733 | 0.59
GQSKGYRPKLF [SIPA1L3_Y1376_YF] | 0.299 | 0.742 | 0.548 | 0.363 | 0.389 | 0.395 | 0.433 | 0.364 | 0.324 | 0.37 | 0.448 | 0.837 | 0.342 | 0.412 | 0.419 | 0.319
LASLIYNFILF [AQP6_Y231_V234I] | 1.02 | 0.993 | 1.04 | 13.3 | 14.7 | 11.5 | 2.67 | 4.45 | 1.28 | 2.98 | 5.49 | 3.72 | 19 | 12.7 | 4.49 | 2.51
FPPTHYIRRVP [SLC4A11_Y820_YF] | 0.374 | 0.644 | 0.746 | 0.473 | 0.522 | 0.965 | 0.953 | 0.437 | 0.53 | 0.755 | 0.71 | 0.87 | 0.747 | 0.475 | 0.468 | 0.529
SPQAHYRLSAF [ADAMTS9_Y100_S96P] | 0.481 | 0.971 | 0.688 | 0.425 | 0.521 | 0.37 | 0.532 | 0.4 | 0.552 | 0.584 | 0.597 | 0.659 | 0.436 | 0.503 | 0.427 | 0.531
CPASVYTKRCS [CPT2_Y508_R503C] | 0.584 | 0.982 | 0.765 | 0.434 | 0.447 | 0.392 | 0.598 | 0.447 | 0.403 | 0.518 | 0.442 | 0.549 | 0.354 | 0.431 | 0.441 | 0.349
IATAIYSGDKI [UGGT2_Y823] | 0.393 | 0.796 | 0.674 | 2.11 | 0.455 | 2.38 | 0.543 | 0.421 | 0.432 | 0.6 | 0.422 | 0.671 | 0.396 | 2.69 | 0.482 | 0.434
GHGRFYMKEAI [PGM1_Y66_D62H] | 1.1 | 1.32 | 1.21 | 0.407 | 0.305 | 0.404 | 0.684 | 0.384 | 0.418 | 0.662 | 0.536 | 0.754 | 0.405 | 0.36 | 0.59 | 0.342
